In the RNAGym collection of RNA variant scans (doi:10.7554/elife.80360) one finds self-cleavage data, which are given here for 78 variants.

First the molecules themselves.
B1: CPEB3 Ribozyme (parent)
chain: GGGGGCCACAGCAGAAGCGUUCACGUCGCGGCCCCUGUCAGAUUCUGGUGAAUCUGCGAAUUCUGCUGU

The data set covers variants of B1. The experiment in a line: self-cleavage, relative activity (ratio to wild type); higher = more cleavage; co-transcriptional.
Consider GGGGGCCACAGCAGAAGCGUUCACGUCGCGGCCCCUGUCAGAUUCUGGUGAAUAUACGAAUUCUGCUGU, for which the self-cleavage was 0.695.

As to GGGGGCCACAGCAGAAGCGUUCACGUCGCGGCCCCUGUCAGAUUCUGGUGAAUAUUCGAAUUCUGCUGU, the self-cleavage worked out at 0.471.

As to GGGGGCCACAGCAGAAGCGUUCACGUCGCGGCCCCUGUCAGAUUCUGGUGAAUUUGCGAUUUCUGCUGU, the self-cleavage amounted to 0.468.

Take GGGGGCCACAGCAGAAGCGUUCACGUCGCGGCCCCUGUCAGAUUCUGGUGAAUUUGCGACUUCUGCUGU: the self-cleavage was 0.211.

With GGGGGCCACAGCAGAAGCGUUCACGUCGCGGCCCCUGUCAGAUUCUGGUGAAUGUGAGAAUUCUGCUGU, the self-cleavage stood at 0.348.

GGGGGCCACAGCAGAAGCGUUCACGUCGCGGCCCCUGUCAGAUUCUGGUGAAUGUGGGAAUUCUGCUGU: the self-cleavage is 0.274.

GGGGGCCACAGCAGAAGCGUUCACGUCGCGGCCCCUGUCAGAUUCUGGUGAAUGUGCGAAUACUGCUGU: the self-cleavage was determined as 0.59.

For GGGGGCCACAGCAGAAGCGUUCACGUCGCGGCCCCUGUCAGAUUCUGGUGAAUUUGCGAAUUCUGAUGU, the self-cleavage was 0.845.

Turning to GGGGGCCACAGCAGAAGCGUUCACGUCGCGGCCCCUGUCAGAUUCUGGUGAAUUUGCGAAUUCUGUUGU, the self-cleavage is 0.975.

Take GGGGGCCACAGCAGAAGCGUUCACGUCGCGGCCCCUGUCAGAUUCUGGUGAAUUUGCGAAUUCUGGUGU: the self-cleavage is 0.837.

Consider GGGGGCCACAGCAGAAGCGUUCACGUCGCGGCCCCUGUCAGAUUCUGGUGAAUGUGCGAAUUCUUCUGU, for which the self-cleavage was 0.587.

On to GGGGGCCACAGCAGAAGCGUUCACGUCGCGGCCCCUGUCAGAUUCUGGUGAAUGUGCGAAUUCUACUGU, for which the self-cleavage stood at 0.663.

Take GGGGGCCACAGCAGAAGCGUUCACGUCGCGGCCCCUGUCAGAUUCUGGUGAAUGUGCGAACUCUGCUGU: the self-cleavage worked out at 0.429.

Turning to GGGGGCCACAGCAGAAGCGUUCACGUCGCGGCCCCUGUCAGAUUCUGGUGAAGCUGCGAAUCCUGCUGU, the self-cleavage was found to be 0.619.

For GGGGGCCACAGCAGAAGCGUUCACGUCGCGGCCCCUGUCAGAUUCUGGUGAAGCUGCGAAUACUGCUGU, the self-cleavage worked out at 0.688.

Turning to GGGGGCCACAGCAGAAGCGUUCACGUCGCGGCCCCUGUCAGAUUCUGGUGAAUGUGCGAAUUCGGCUGU, the self-cleavage was found to be 0.533.

Regarding GGGGGCCACAGCAGAAGCGUUCACGUCGCGGCCCCUGUCAGAUUCUGGUGAAUAUGGGAAUUCUGCUGU, the self-cleavage stood at 0.338.

Regarding GGGGGCCACAGCAGAAGCGUUCACGUCGCGGCCCCUGUCAGAUUCUGGUGAAUAUGUGAAUUCUGCUGU, the self-cleavage was 0.377.

Consider GGGGGCCACAGCAGAAGCGUUCACGUCGCGGCCCCUGUCAGAUUCUGGUGAAUAUGAGAAUUCUGCUGU, for which the self-cleavage was 0.378.

Turning to GGGGGCCACAGCAGAAGCGUUCACGUCGCGGCCCCUGUCAGAUUCUGGUGAAUACGCGAAUUCUGCUGU, the self-cleavage was found to be 0.656.

Take GGGGGCCACAGCAGAAGCGUUCACGUCGCGGCCCCUGUCAGAUUCUGGUGAAUAGGCGAAUUCUGCUGU: the self-cleavage was 0.796.

For GGGGGCCACAGCAGAAGCGUUCACGUCGCGGCCCCUGUCAGAUUCUGGUGAAUAAGCGAAUUCUGCUGU, the self-cleavage came out at 0.743.

With GGGGGCCACAGCAGAAGCGUUCACGUCGCGGCCCCUGUCAGAUUCUGGUGAAUGCGCGAAUUCUGCUGU, the self-cleavage was found to be 0.381.

For the variant GGGGGCCACAGCAGAAGCGUUCACGUCGCGGCCCCUGUCAGAUUCUGGUGAAUAUGCGAAUUCUUCUGU, the self-cleavage was determined as 0.519.

For the variant GGGGGCCACAGCAGAAGCGUUCACGUCGCGGCCCCUGUCAGAUUCUGGUGAAUAUGCGAAUUCUACUGU, the self-cleavage amounted to 0.629.

For the variant GGGGGCCACAGCAGAAGCGUUCACGUCGCGGCCCCUGUCAGAUUCUGGUGAAUGUGCGAAUUCUGUUGU, the self-cleavage was 0.821.

As to GGGGGCCACAGCAGAAGCGUUCACGUCGCGGCCCCUGUCAGAUUCUGGUGAAUGUGCGCAUUCUGCUGU, the self-cleavage came out at 0.478.

As to GGGGGCCACAGCAGAAGCGUUCACGUCGCGGCCCCUGUCAGAUUCUGGUGAAUGUGCGGAUUCUGCUGU, the self-cleavage was 0.957.

Turning to GGGGGCCACAGCAGAAGCGUUCACGUCGCGGCCCCUGUCAGAUUCUGGUGAAUAUGCGAAAUCUGCUGU, the self-cleavage was determined as 0.512.

For the variant GGGGGCCACAGCAGAAGCGUUCACGUCGCGGCCCCUGUCAGAUUCUGGUGAAUAUGCGAAGUCUGCUGU, the self-cleavage stood at 0.415.

Consider GGGGGCCACAGCAGAAGCGUUCACGUCGCGGCCCCUGUCAGAUUCUGGUGAAUAUGCGAACUCUGCUGU, for which the self-cleavage came to 0.44.

For the variant GGGGGCCACAGCAGAAGCGUUCACGUCGCGGCCCCUGUCAGAUUCUGGUGAAUAUGCGAAUUCUGCAGU, the self-cleavage came out at 0.954.

Consider GGGGGCCACAGCAGAAGCGUUCACGUCGCGGCCCCUGUCAGAUUCUGGUGAAUAUGCGAAUUAUGCUGU, for which the self-cleavage amounted to 0.538.

As to GGGGGCCACAGCAGAAGCGUUCACGUCGCGGCCCCUGUCAGAUUCUGGUGAAUAUGCGAAUUGUGCUGU, the self-cleavage worked out at 0.445.

For the variant GGGGGCCACAGCAGAAGCGUUCACGUCGCGGCCCCUGUCAGAUUCUGGUGAAUAUGCGAAUUUUGCUGU, the self-cleavage was 0.796.

For the variant GGGGGCCACAGCAGAAGCGUUCACGUCGCGGCCCCUGUCAGAUUCUGGUGAAUUUACGAAUUCUGCUGU, the self-cleavage worked out at 0.923.

For GGGGGCCACAGCAGAAGCGUUCACGUCGCGGCCCCUGUCAGAUUCUGGUGAAUUUGCGAAUUAUGCUGU, the self-cleavage turned out to be 0.797.

In the case of GGGGGCCACAGCAGAAGCGUUCACGUCGCGGCCCCUGUCAGAUUCUGGUGAAUUUGCGAAUUGUGCUGU, the self-cleavage was determined as 0.859.

Take GGGGGCCACAGCAGAAGCGUUCACGUCGCGGCCCCUGUCAGAUUCUGGUGAAUGUCCGAAUUCUGCUGU: the self-cleavage amounted to 0.43.

With GGGGGCCACAGCAGAAGCGUUCACGUCGCGGCCCCUGUCAGAUUCUGGUGAAUGUACGAAUUCUGCUGU, the self-cleavage amounted to 0.658.

For GGGGGCCACAGCAGAAGCGUUCACGUCGCGGCCCCUGUCAGAUUCUGGUGAAUGUGCGAUUUCUGCUGU, the self-cleavage was 0.393.

In the case of GGGGGCCACAGCAGAAGCGUUCACGUCGCGGCCCCUGUCAGAUUCUGGUGAAUGUGCGAGUUCUGCUGU, the self-cleavage turned out to be 0.541.

Take GGGGGCCACAGCAGAAGCGUUCACGUCGCGGCCCCUGUCAGAUUCUGGUGAAUGUGCGACUUCUGCUGU: the self-cleavage worked out at 0.282.

Take GGGGGCCACAGCAGAAGCGUUCACGUCGCGGCCCCUGUCAGAUUCUGGUGAAUGUGCGAAUUCUGCUCU: the self-cleavage was 0.947.

Take GGGGGCCACAGCAGAAGCGUUCACGUCGCGGCCCCUGUCAGAUUCUGGUGAAUGUGCGAAUUCUGCUAU: the self-cleavage turned out to be 0.99.

For GGGGGCCACAGCAGAAGCGUUCACGUCGCGGCCCCUGUCAGAUUCUGGUGAAUUUGCGUAUUCUGCUGU, the self-cleavage came to 0.883.

Consider GGGGGCCACAGCAGAAGCGUUCACGUCGCGGCCCCUGUCAGAUUCUGGUGAAUUUGCGGAUUCUGCUGU, for which the self-cleavage was 1.04.

Turning to GGGGGCCACAGCAGAAGCGUUCACGUCGCGGCCCCUGUCAGAUUCUGGUGAAUAUGCGAAUUCUGCUGC, the self-cleavage stood at 1.04.

Consider GGGGGCCACAGCAGAAGCGUUCACGUCGCGGCCCCUGUCAGAUUCUGGUGAAUAUGCGAAUUCUGCUGA, for which the self-cleavage came to 1.01.

Turning to GGGGGCCACAGCAGAAGCGUUCACGUCGCGGCCCCUGUCAGAUUCUGGUGAAUAUGCGAAUUCCGCUGU, the self-cleavage stood at 0.483.

GGGGGCCACAGCAGAAGCGUUCACGUCGCGGCCCCUGUCAGAUUCUGGUGAAUAUGCGAAUUCAGCUGU: the self-cleavage was 0.543.

Regarding GGGGGCCACAGCAGAAGCGUUCACGUCGCGGCCCCUGUCAGAUUCUGGUGAAGCUGCGAAUUCGGCUGU, the self-cleavage was 0.6.

As to GGGGGCCACAGCAGAAGCGUUCACGUCGCGGCCCCUGUCAGAUUCUGGUGAAGCUGCGAAUUCCGCUGU, the self-cleavage is 0.764.

In the case of GGGGGCCACAGCAGAAGCGUUCACGUCGCGGCCCCUGUCAGAUUCUGGUGAAUAUGCGAUUUCUGCUGU, the self-cleavage came to 0.308.

Consider GGGGGCCACAGCAGAAGCGUUCACGUCGCGGCCCCUGUCAGAUUCUGGUGAAUAUGCGAGUUCUGCUGU, for which the self-cleavage was found to be 0.584.

Take GGGGGCCACAGCAGAAGCGUUCACGUCGCGGCCCCUGUCAGAUUCUGGUGAAGCUGCGAAUUCUGCUGC: the self-cleavage is 1.04.

Turning to GGGGGCCACAGCAGAAGCGUUCACGUCGCGGCCCCUGUCAGAUUCUGGUGAAGCUGCGAAUUCUGCUGG, the self-cleavage is 1.02.

Take GGGGGCCACAGCAGAAGCGUUCACGUCGCGGCCCCUGUCAGAUUCUGGUGAAUGUGCCAAUUCUGCUGU: the self-cleavage came out at 0.829.

With GGGGGCCACAGCAGAAGCGUUCACGUCGCGGCCCCUGUCAGAUUCUGGUGAAUGUGCUAAUUCUGCUGU, the self-cleavage was determined as 0.93.

Regarding GGGGGCCACAGCAGAAGCGUUCACGUCGCGGCCCCUGUCAGAUUCUGGUGAAUAUGCGAAUUCUGCUGU, the self-cleavage stood at 0.944.

Regarding GGGGGCCACAGCAGAAGCGUUCACGUCGCGGCCCCUGUCAGAUUCUGGUGAAUGUGCGAAUUCUGCUGU, the self-cleavage is 0.951.

For the variant GGGGGCCACAGCAGAAGCGUUCACGUCGCGGCCCCUGUCAGAUUCUGGUGAAUUUGCGAAUUCUGCUGU, the self-cleavage was determined as 1.

Turning to GGGGGCCACAGCAGAAGCGUUCACGUCGCGGCCCCUGUCAGAUUCUGGUGAAUAUGCGAAUUCUGCUAU, the self-cleavage was found to be 0.955.

On to GGGGGCCACAGCAGAAGCGUUCACGUCGCGGCCCCUGUCAGAUUCUGGUGAAUGUGCGAAUUCUGCCGU, for which the self-cleavage was determined as 0.819.

For the variant GGGGGCCACAGCAGAAGCGUUCACGUCGCGGCCCCUGUCAGAUUCUGGUGAAUGUGCGAAUUCUGCGGU, the self-cleavage came to 0.925.

Turning to GGGGGCCACAGCAGAAGCGUUCACGUCGCGGCCCCUGUCAGAUUCUGGUGAAUAUGCGAAUUCUGAUGU, the self-cleavage turned out to be 0.45.

On to GGGGGCCACAGCAGAAGCGUUCACGUCGCGGCCCCUGUCAGAUUCUGGUGAAUAUGCGAAUUCUGUUGU, for which the self-cleavage came to 0.911.

On to GGGGGCCACAGCAGAAGCGUUCACGUCGCGGCCCCUGUCAGAUUCUGGUGAAUGUGCGAAUUGUGCUGU, for which the self-cleavage came out at 0.514.

Take GGGGGCCACAGCAGAAGCGUUCACGUCGCGGCCCCUGUCAGAUUCUGGUGAAUGUGCGAAUUUUGCUGU: the self-cleavage stood at 0.797.

On to GGGGGCCACAGCAGAAGCGUUCACGUCGCGGCCCCUGUCAGAUUCUGGUGAAUAUGCCAAUUCUGCUGU, for which the self-cleavage was 0.857.

For GGGGGCCACAGCAGAAGCGUUCACGUCGCGGCCCCUGUCAGAUUCUGGUGAAUAUGCUAAUUCUGCUGU, the self-cleavage worked out at 0.968.

Turning to GGGGGCCACAGCAGAAGCGUUCACGUCGCGGCCCCUGUCAGAUUCUGGUGAAUGUGCGAAUUCUGCUGG, the self-cleavage was 1.05.

As to GGGGGCCACAGCAGAAGCGUUCACGUCGCGGCCCCUGUCAGAUUCUGGUGAAUGUGCGAAUUCUGCUGA, the self-cleavage is 1.01.

GGGGGCCACAGCAGAAGCGUUCACGUCGCGGCCCCUGUCAGAUUCUGGUGAAUUUGAGAAUUCUGCUGU: the self-cleavage was 0.413.

As for GGGGGCCACAGCAGAAGCGUUCACGUCGCGGCCCCUGUCAGAUUCUGGUGAAUUUGUGAAUUCUGCUGU, the self-cleavage stood at 0.385.

In the case of GGGGGCCACAGCAGAAGCGUUCACGUCGCGGCCCCUGUCAGAUUCUGGUGAAUUUGGGAAUUCUGCUGU, the self-cleavage turned out to be 0.407.

Turning to GGGGGCCACAGCAGAAGCGUUCACGUCGCGGCCCCUGUCAGAUUCUGGUGAAUAUGCGAAUCCUGCUGU, the self-cleavage was 0.538.

On to GGGGGCCACAGCAGAAGCGUUCACGUCGCGGCCCCUGUCAGAUUCUGGUGAAUAUGCGAAUGCUGCUGU, for which the self-cleavage came to 0.58.
